Here are results for six substances from PMC3718800, “Structural and Functional Perturbation of Giardia lamblia Triosephosphate Isomerase by Modification of a Non-Catalytic, Non-Conserved Region” (PLoS ONE, 2013).

Broadly, the Km is the concentration of substrate that gives half-maximal velocity. What is called Vmax is the rate approached at saturating substrate. A word on the kcat: it is the number of substrate molecules converted per active site and unit of time at saturation.

The series relates to O=C[C@H](O)COP(=O)(O)O. Kind of series: Coupled alpha-glycerol-3-phosphate dehydrogenase assay following NADH decrease at 340 nm at 25°C in 100 mM triethanolamine/10 mM EDTA, pH 7.4, with 0.2 mM NADH and GAP varied from 0.3 to 3 mM, fitted to the Michaelis-Menten equation by non-linear regression. In kind it is biochemical. Here is the method:
Glyceraldehyde 3-phosphate (GAP), buffers, salts and all the other analytical grade reagents were acquired from Sigma–Aldrich; α-glycerol-3-phosphate dehydrogenase (α-GDH) was from Roche, crystallization screen kits were obtained from Hampton Research. Restriction enzymes, DNA polymerase and T4 DNA ligase were purchased from New England BioLabs and Invitrogene. Oligonucleotide synthesis and DNA sequencing was performed at the Unidad de Biología Molecular, Instituto de Fisiología Celular, UNAM. Protein concentration was determined by the bicinchoninic acid method or by absorbance at 280 nm for pure GlTIM (ε280 = 26600 M^-1cm^-1). The TIM activity was determined at 25°C by a coupled assay, following the decrease in absorbance at 340 nm. The standard reaction mixture contained 100 mM triethanolamine/10 mM EDTA, pH 7.4 (TE buffer), 1 mM GAP, 0.2 mM NADH, and 0.9 units of α-GDH (20 μg/mL); the reaction was initiated by addition of 5 ng/mL of WT, C222V or C222M GlTIM, 10 ng/mL of C222N, 20 ng/mL of C222D or C222F, and 200 ng/mL of C222K. Kinetic, binding and stability data were analyzed by non-linear regression calculations with Origin software.
Determination of Km and Vmax was performed by fitting initial velocity data at GAP concentrations ranging from 0.3 to 3 mM to the Michaelis-Menten equation (v = Vmax•S/Km+S) by non-linear regression calculations. The kcat was derived from Vmax by considering a molecular mass for the monomer of 27.7 kDa. The Ki for 2-phosphoglycolate (2-PG) was calculated by global fit of initial velocity curves (GAP from 0.3 to 3 mM) obtained at different fixed concentrations of the inhibitor. Prior to fitting collectively the data to the simple competitive inhibition equation (v = Vmax•S/Km(1+I/Ki)+S), individual data were plotted as double reciprocal plots to confirm competitive inhibition.
As to C222D (Giardia duodenalis; C222D), the Km turned out to be 4880 ± 810 µM, the Vmax worked out at 3720 µmol/min/mg and the kcat is 3330 s⁻¹.

In the case of C222M (Giardia duodenalis; C222M), the Km was determined as 1850 ± 460 µM, the Vmax was 3100 µmol/min/mg and the kcat stood at 2800 s⁻¹.

For C222V (Giardia duodenalis; C222V), the Km was determined as 960 ± 120 µM, the Vmax amounted to 9560 µmol/min/mg and the kcat was 8670 s⁻¹.

With C222K (Giardia duodenalis; C222K), the Km came to 3100 ± 640 µM, the Vmax was found to be 255 µmol/min/mg and the kcat is 217 s⁻¹.

As to C222F (Giardia duodenalis; C222F), the Km is 3900 ± 460 µM, the Vmax stood at 1660 µmol/min/mg and the kcat is 1500 s⁻¹.

On to C222N (Giardia duodenalis; C222N), for which the Km is 2790 ± 730 µM, the Vmax is 3650 µmol/min/mg and the kcat came to 3320 s⁻¹.
